From US20230118024A1 (Chugai, published 2023)
Changes are numbered by the printed parent chain.

T1: HLA-DR on Ba/F3 cells (human, UniProt P01903 26-216; P79483 30-227, limits assumed)
T1 construct: whole, on cells; also called Ba/F3-HLA-DR
T1 MHC II alpha: not shown
T1 MHC II beta: not shown

T2: HLA-DQ7.3 on Ba/F3 cells (human, UniProt P01909 24-254; P01920 33-261)
T2 construct: also called Ba/F3-HLA-DQ7.3
T2 MHC II alpha: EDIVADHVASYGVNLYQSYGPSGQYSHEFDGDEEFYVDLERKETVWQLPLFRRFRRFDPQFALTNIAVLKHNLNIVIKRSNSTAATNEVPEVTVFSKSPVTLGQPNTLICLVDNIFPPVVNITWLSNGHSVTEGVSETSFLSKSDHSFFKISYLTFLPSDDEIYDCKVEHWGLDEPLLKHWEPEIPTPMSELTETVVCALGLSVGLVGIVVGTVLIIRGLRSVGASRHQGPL
T2 MHC II beta: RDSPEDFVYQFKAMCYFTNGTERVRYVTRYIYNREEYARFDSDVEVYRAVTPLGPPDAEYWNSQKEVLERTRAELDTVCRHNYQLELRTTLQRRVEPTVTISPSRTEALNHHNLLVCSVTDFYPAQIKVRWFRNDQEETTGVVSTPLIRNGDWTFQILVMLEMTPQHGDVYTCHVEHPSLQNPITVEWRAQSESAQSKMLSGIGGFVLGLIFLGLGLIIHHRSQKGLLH

T3: HLA-DQ2.5 on HLA-DQ2.5 positive PBMC-B cells (human, UniProt P01909 24-254; P01920 33-261)
T3 construct: also called DQ2.5 + PBMC; HLA-DQ2.5+PBMC B cell
T3 MHC II alpha: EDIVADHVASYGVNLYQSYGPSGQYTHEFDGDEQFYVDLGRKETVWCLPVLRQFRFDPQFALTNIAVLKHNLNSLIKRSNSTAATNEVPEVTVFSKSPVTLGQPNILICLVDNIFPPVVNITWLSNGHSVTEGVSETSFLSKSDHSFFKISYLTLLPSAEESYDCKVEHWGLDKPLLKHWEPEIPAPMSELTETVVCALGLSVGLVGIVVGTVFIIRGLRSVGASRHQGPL
T3 MHC II beta: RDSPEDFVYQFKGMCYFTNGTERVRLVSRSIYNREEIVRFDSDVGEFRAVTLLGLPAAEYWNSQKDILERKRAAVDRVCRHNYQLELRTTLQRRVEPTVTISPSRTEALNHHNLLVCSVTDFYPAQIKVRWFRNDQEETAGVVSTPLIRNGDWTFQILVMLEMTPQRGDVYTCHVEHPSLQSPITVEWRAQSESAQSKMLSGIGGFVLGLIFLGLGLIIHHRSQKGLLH

T4: HLA-DQ8 on Ba/F3 cells (human, UniProt P01909 24-254; P01920 33-261)
T4 construct: also called Ba/F3-HLA-DQ8
T4 MHC II alpha: T2 MHC II alpha with D160A
T4 MHC II beta: T2 MHC II beta with A13G, Y26L, E45G, D57A, H167R, T185I

T5: HLA-DQ2.2 on Ba/F3 cells (human, UniProt P01909 24-254; P01920 33-261)
T5 construct: also called Ba/F3-HLA-DQ2.2
T5 MHC II alpha: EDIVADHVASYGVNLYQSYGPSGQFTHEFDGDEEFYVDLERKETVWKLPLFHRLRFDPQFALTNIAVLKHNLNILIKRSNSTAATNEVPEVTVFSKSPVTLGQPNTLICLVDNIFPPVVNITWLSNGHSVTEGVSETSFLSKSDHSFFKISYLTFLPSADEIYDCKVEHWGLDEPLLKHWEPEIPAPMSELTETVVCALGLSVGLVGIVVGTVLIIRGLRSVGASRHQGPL
T5 MHC II beta: T3 MHC II beta with D135G

T6: HLA-DQ2.5 on Ba/F3 cells (not in the form of a complex with a linked peptide) (human, UniProt P01909 24-254; P01920 33-261)
T6 construct: also called Ba/F3-HLA-DQ2.5; No peptide
T6 MHC II alpha: T3 MHC II alpha
T6 MHC II beta: T3 MHC II beta

B1: DQN0089ff (antibody, V domains shown)
VH: QEQVVEYGGDLVQPEGSLTLTCKASGLDFSSTYYMCWVRQAPGKGLEWIGCIYGGSSDSTYYASWAKGRFTISKTSPTTVTLQMTSLTAADTATHFCATYDYGAVGYDLWGPGTLVTVSS
VL: EVVVTQTPASVEVAVGGTVTIKCQASQNISPYLSWYQQKPGQPPKLLIYKASTLASGVSSRFKGSGSGTQFTLTISDLECADAATYYCQNNYGVSINYGHTFGGGTKVEIK
notes: also called DQN0089Hf; DQN0089Lf
B2: IC17 (antibody, V domains shown)
VH: QVQLQQSGPQLVRPGASVNISCKASGYSFTSYWMHWVNQRPGQGLEWIGMIDPSYSETRLNQKFKDKATLTVDKSSSTAYMQLSSPTSEDSAVYYCALYGNYFDYWGQGTTLTVSS
VL: DIQMTQSSSSFSVSLGDRVTITCKASEDIYNRLAWYQQKPGNAPRLLISGATSLETGVPSRFSGSGSGKDYTLSITSLQTEDVATYYCQQYWSTPYTFGGGTKLEVK
notes: also called IC17H; IC17L

How the values were obtained:
[1] = target: T1, HLA-DR on Ba/F3 cells; test: FACS, FIG. 7
[2] = target: T7, HLA-DP on Ba/F3 cells (human, UniProt P20036 29-222; P04440 30-225, limits assumed); test: FACS, FIG. 6
T7 construct: whole, on cells; also called Ba/F3-HLA-DP

[3] = target: T8, HLA-DQ5.1 on Ba/F3 cells (human); test: FACS, Ba/F3 cells expressing the target, goat F(ab')2 anti-human IgG-PE (Example 10)
T8 construct: also called BaF3-HLA-DQ5.1

[4] = target: T2, HLA-DQ7.3 on Ba/F3 cells; test: FACS, Ba/F3 cells expressing the target, goat F(ab')2 anti-human IgG-PE (Example 4.2)
[5] = target: T9, HLA-DQ6.3 on Ba/F3 cells (human, UniProt P01920 33-261); test: as above
T9 construct: also called BaF3-HLA-DQ6.3

[6] = target: T1, HLA-DR on Ba/F3 cells; test: FACS, Ba/F3 cells expressing the target, goat F(ab')2 anti-human IgG-PE (Example 10)
[7] = target: T7, HLA-DP on Ba/F3 cells; test: as above
[8] = target: T3, HLA-DQ2.5 on HLA-DQ2.5 positive PBMC-B …; test: FACS, HLA-DQ2.5 positive PBMC with FcR blocking reagent, anti-CD19 stain, Alexa Fluor 555 anti-human IgG Fc antibody (Example 8)
[9] = target: T4, HLA-DQ8 on Ba/F3 cells; test: FACS, Ba/F3 cells expressing the target, goat F(ab')2 anti-human IgG-PE (Example 10)
[10] = target: T5, HLA-DQ2.2 on Ba/F3 cells; test: FACS, Ba/F3 cells expressing the target, goat F(ab')2 anti-human IgG-PE (Example 9)
[11] = target: T6, HLA-DQ2.5 on Ba/F3 cells (not in the …); test: FACS, Ba/F3 cells expressing the target, goat F(ab')2 anti-human IgG-PE (Example 7)

T7 sequence (P20036 29-222 limits assumed, chain 1 of 4, other chains not shown): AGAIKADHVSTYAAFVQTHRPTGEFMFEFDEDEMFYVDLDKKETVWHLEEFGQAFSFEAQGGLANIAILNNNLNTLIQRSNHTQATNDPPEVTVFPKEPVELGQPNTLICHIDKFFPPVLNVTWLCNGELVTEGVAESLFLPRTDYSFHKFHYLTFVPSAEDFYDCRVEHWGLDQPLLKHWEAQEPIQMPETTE
T7 sequence (P04440 30-225 limits assumed, chain 2 of 4, other chains not shown): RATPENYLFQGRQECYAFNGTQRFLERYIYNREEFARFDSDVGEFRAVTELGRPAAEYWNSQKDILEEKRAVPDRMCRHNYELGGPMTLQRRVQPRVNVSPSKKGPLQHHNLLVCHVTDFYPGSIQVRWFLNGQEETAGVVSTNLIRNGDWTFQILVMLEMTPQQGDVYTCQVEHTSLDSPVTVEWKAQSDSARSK

Row | Binder | binding result [1] | binding result [2] | binding result [3] | binding result [4] | binding result [5] | binding result [6] | binding result [7] | binding result [8] | binding result [9] | binding result [10] | binding result [11]
1 | B1 | binds | binds |  |  |  |  |  |  |  |  | 
2 | B2 |  |  | no binding (tested: 20 microgram/mL) | no binding (tested: 20 microgram/mL) | no binding (tested: 20 microgram/mL) | no binding (tested: 20 microgram/mL) | no binding (tested: 20 microgram/mL) | no binding (tested: 10 microgram/mL) | no binding (tested: 20 microgram/mL) | no binding (tested: 10 microgram/mL) | no binding (tested: 10 microgram/mL)
